Measured values reported in US20150260731A1.

How the values were obtained:
Aβ1-40 monomer [1] = test: BIACORE (SPR)
[2] = molecular target: amyloid β-derived diffusible ligands (ADDLs), oligomers of Aβ1-42; test: BIACORE (SPR)
[3] = molecular target: amyloid β-derived diffusible ligands (ADDLs), oligomers of Aβ1-42; test: sandwich ELISA on ERENNA, 19.3 on beads as capture, labelled 7305 as detection; ADDLs 5.00 pM in standards diluent
[4] = molecular target: amyloid β-derived diffusible ligands (ADDLs), oligomers of Aβ1-42; test: one-sided ELISA, plate coated with Aβ oligomers 50 pmol/well (FIG. 5A)
[5] = molecular target: amyloid β-derived diffusible ligands (ADDLs), oligomers of Aβ1-42; test: sandwich ELISA on ERENNA, 19.3 on beads as capture, labelled 7305 as detection; ADDLs 0.19 pM in standards diluent
Aβ1-40 monomer [6] = test: ELISA on coated antigen; antibody kept at 40° for 1 month
Aβ1-40 monomer [7] = test: KINEXA, equilibrium in solution
[8] = molecular target: amyloid β-derived diffusible ligands (ADDLs), oligomers of Aβ1-42; test: KINEXA, equilibrium in solution
Aβ1-40 monomer [9] = test: ELISA on coated antigen; antibody at 0 timepoint
[10] = molecular target: amyloid β-derived diffusible ligands (ADDLs), oligomers of Aβ1-42; test: ELISA, IgG2
[11] = molecular target: amyloid β-derived diffusible ligands (ADDLs), oligomers of Aβ1-42; test: sandwich ELISA on ERENNA, 19.3 on beads as capture, labelled 7305 as detection; ADDLs 0.56 pM in standards diluent
[12] = molecular target: amyloid β-derived diffusible ligands (ADDLs), oligomers of Aβ1-42; test: sandwich ELISA on ERENNA, 19.3 on beads as capture, labelled 7305 as detection; ADDLs 1.67 pM in standards diluent
Aβ1-40 monomer [13] = test: sandwich ELISA on ERENNA, 19.3 capture, 7305 detection
Aβ1-40 monomer [14] = test: ELISA on coated antigen; antibody kept at 4° for 1 month
Aβ1-40 monomer [15] = test: sandwich ELISA on ERENNA, 19.3 capture, 82E1 detection
Aβ1-40 monomer [16] = test: ELISA on coated antigen; antibody kept at 25° for 1 month
Aβ1-40 monomer [17] = test: one-sided ELISA, plate coated with Aβ1-40 100 pmol/well (FIG. 5A)
[18] = molecular target: amyloid β-derived diffusible ligands (ADDLs), oligomers of Aβ1-42; test: competitive ELISA (ratio of the two EC50)
Aβ1-20 = test: solution-based binding assay, free antibody by ELISA, GRAFIT fit
Aβ1-20, sequence (peptide, as listed by the source): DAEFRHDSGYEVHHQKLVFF

| Kd (Aβ1-40 monomer [1]) [nM] | Kd [2] [nM] | DE Mean (detected events mean) (detected events) [3] | EC50 [4] [nM] | DE Mean (detected events mean) (detected events) [5] | EC50 (Aβ1-40 monomer [6]) [nM] | Kd (Aβ1-40 monomer [7]) [nM] | Kd [8] [nM] | EC50 (Aβ1-40 monomer [9]) [nM] | EC50 [10] [nM] | DE Mean (detected events mean) (detected events) [11] | DE Mean (detected events mean) (detected events) [12] | Aβ40 monomer Cross Reactivity (Aβ1-40 monomer [13]) [%] | EC50 (Aβ1-40 monomer [14]) [nM] | Aβ40 monomer Cross Reactivity (Aβ1-40 monomer [15]) [%] | EC50 (Aβ1-40 monomer [16]) [nM] | EC50 (Aβ1-40 monomer [17]) [nM] | affinity for Aβ1-42 oligomers compared to Aβ1-40 monomers [18] | Kd (Aβ1-20) [nM] | Substance |
| --- | --- | --- | --- | --- | --- | --- | --- | --- | --- | --- | --- | --- | --- | --- | --- | --- | --- | --- | --- |
| 150 | 4.8 | 5580 | 1.6 | 324 | 88.8 | 16.7 | 2.7 | 10.1 | 0.8 | 691 | 1940 | 0.02 | 16.3 | 0.04 | 22.1 | 4.3 | 630 | – | anti-ADDL antibody 19.3 |
| – | – | – | – | – | – | – | – | – | – | – | – | – | – | – | – | – | – | 19.3 | WO-2 (antibody) |
